Source: patent US20220033501A1 (SHANGHAI PHARMAEXPLORER, published 2022)
Changes are numbered by the printed parent chain. Blank lines part the entries; values can stand above or below the binder they belong to.

Experiments:
[1] = molecular target: T1, human TIM-3 extracellular domain protein with hFc tag (hTIM-3-hFc) (human, UniProt Q8TDQ0 22-200); assay: FACS, blocking of hTIM-3-hFc binding to phosphatidylserine on apoptotic Jurkat cells, 0 nM antibody
T1 construct: not shown: human IgG Fc fragment (hFc) of the pCpC vector
T1 sequence: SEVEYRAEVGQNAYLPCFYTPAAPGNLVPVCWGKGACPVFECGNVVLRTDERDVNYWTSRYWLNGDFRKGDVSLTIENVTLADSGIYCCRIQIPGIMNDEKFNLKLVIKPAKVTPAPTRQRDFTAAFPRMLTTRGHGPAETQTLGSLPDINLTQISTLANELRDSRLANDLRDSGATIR
Experimental: (§1) Jurkat cells were treated with 1 μM staurosporine at 37° C. for 2 hours to induce apoptosis. The presence of phosphatidylserine was detected by Annexin V-FITC cell apoptosis detection kit. […] The cells were washed 1-2 times with PBS buffer, and after cell counting, the cells were diluted to 1-2×10⁶ cells per milliliter with binding buffer, and added to a 96-well FACS reaction plate at 100 microliters per well. The antibody sample to be tested and 2 μg/ml hTIM-3-hFc protein were prepared with binding buffer, and mixed equally in volume. The mixture was incubated at room temperature for 30 minutes, then the FACS reaction plate incubated with apoptotic cells was centrifuged to discard the supernatant, and the above mixture was added to the apoptotic cells at 100 microliters per well and incubated at room temperature for 1 hour. The plate was washed twice with the binding buffer by centrifugation, added with 100 microliters of fluorescent (Alexa 488)-labeled secondary antibodies per well, and incubated for half an hour. The plate was washed 2-3 times with the binding buffer by centrifugation, added with 100 microliters of PBS per well to suspend cells, and detected using FACS (FACS Calibur, BD) and the results were analyzed. The results are shown in Table 15 and FIG. 15, wherein the IgG control is human IgG, and the data in the table is the inhibition rate (%).

[2] = molecular target: T1, human TIM-3 extracellular domain …; assay: FACS, blocking of hTIM-3-hFc binding to phosphatidylserine on apoptotic Jurkat cells, 200 nM antibody
Experimental: as §1

[3] = molecular target: T1, human TIM-3 extracellular domain …; assay: FACS, blocking of hTIM-3-hFc binding to phosphatidylserine on apoptotic Jurkat cells, 0.823 nM antibody
Experimental: as §1

[4] = molecular target: T1, human TIM-3 extracellular domain …; assay: FACS, blocking of hTIM-3-hFc binding to phosphatidylserine on apoptotic Jurkat cells, 7.407 nM antibody
Experimental: as §1

[5] = molecular target: T1, human TIM-3 extracellular domain …; assay: FACS, blocking of hTIM-3-hFc binding to phosphatidylserine on apoptotic Jurkat cells, 66.667 nM antibody
Experimental: as §1

[6] = molecular target: T2, human TIM-3, full length, on cells (human, UniProt Q8TDQ0 22-301); assay: FACS, CHOK1-hTIM-3 cells; antibody 200 nM
T2 construct: Also used here for native TIM-3 on PBMC in the functional rows; also called CHOK1-hTIM-3; HEK293-h TIM-3
T2 sequence: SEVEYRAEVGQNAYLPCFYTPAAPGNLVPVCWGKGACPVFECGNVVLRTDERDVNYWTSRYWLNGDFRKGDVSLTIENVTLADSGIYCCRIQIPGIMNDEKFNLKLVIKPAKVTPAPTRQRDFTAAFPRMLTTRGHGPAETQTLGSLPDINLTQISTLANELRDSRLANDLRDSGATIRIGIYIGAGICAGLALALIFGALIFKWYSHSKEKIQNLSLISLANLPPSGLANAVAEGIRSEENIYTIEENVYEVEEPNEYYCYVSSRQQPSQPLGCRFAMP
From the text: (§2) The pIRES plasmid containing the full-length nucleotide sequence encoding human TIM-3 as described in Example 1 was transfected into CHOK1 cell line to obtain a CHOK1 stable cell line containing human TIM-3 (herein referred to as CHOK1-hTIM-3 stable cell line). The pIRES plasmid containing the full-length gene of monkey TIM-3 was transfected into CHOK1 cell line to construct a CHOK1 stable cell line containing monkey TIM-3 (herein referred to as CHOK1-cTIM-3 stable cell line). The CHOK1-hTIM-3 stable cell line and CHOK1-cTIM-3 stable cell line were expanded to a confluence of 90% in a T-75 cell culture flask. The medium was aspirated, and the cells were washed with HBSS (Hanks' Balanced Salt Solution) 1-2 times, and then treated with an enzyme-free cell dissociation solution (Versene solution: Life technology) and the cells were collected. The cells were washed with HBSS buffer for 1-2 times. After counted, the cells were diluted with HBSS to 1-2×10⁶ cells per ml, added with 1% goat serum blocking solution, incubated on ice for 20-30 minutes, and then washed with HBSS by centrifugation 2 times. The collected cells were suspended in the FACS buffer (HBSS+1% BSA) to 2×10⁶ cells/ml, added as 100 microliters per well to a 96-well FACS reaction plate, added with 100 microliters per well of the antibody sample to be tested, incubated on ice for 1-2 hours. The plate was washed twice with the FACS buffer by centrifugation, added with 100 microliters of fluorescent (Alexa 488)-labeled secondary antibodies per well, and incubated on ice for 0.5-1.0 hours. The plate was washed 2-3 times with FACS buffer by centrifugation, added with 100 μl fixative solution (4% Paraformaldehyde) per well to suspend the cells. 5-10 minutes later, it was washed 1-2 times with FACS buffer by centrifugation. The cells were suspended with 100 microliters of FACS buffer, FACS (FACSCalibur, BD) was used for detection and the results were analyzed. The results are shown in FIGS. 7 and 8, Tables 7 and 8, wherein the IgG control is rat IgG, and the data in the table are the average fluorescence intensity values of the cell populations measured by MFI.

[7] = molecular target: T2, human TIM-3, full length, on cells; assay: FACS, CHOK1-hTIM-3 cells; antibody 0.32 nM
From the text: as §2

[8] = molecular target: T2, human TIM-3, full length, on cells; assay: FACS, CHOK1-hTIM-3 cells; antibody 0.013 nM
From the text: as §2

[9] = molecular target: T2, human TIM-3, full length, on cells; assay: FACS, CHOK1-hTIM-3 cells; antibody 0.064 nM
From the text: as §2

[10] = molecular target: T2, human TIM-3, full length, on cells; assay: FACS, CHOK1-hTIM-3 cells; antibody 0 nM (blank)
From the text: as §2

B5: 18D2H2 (TIM-3 antibody purified from hybridoma, chimeric antibody of Example 2) (antibody, V domains shown)
VH: EVQLVESGGDLVQPGGSLRLSCAASGFTFSTYWMTWVRQAPGRGLEWVANIKQDGSAKYYVDSVKGRFTLSRDDAKNSLYLQMNSLRAEDTAVYYCARGSNWFDYWGQGTLVTVSS
VL: ETVMTQSPATLSVSPGERATLSCRANQNVYSNLAWYQQKPGQAPRLLIYDASTRATGFPARFSGSGSGTEFTLTISSLQSEDFAVYYCQQYNNWPLTFGGGTKVEIK
notes: From hybridoma of Harbour H2L2 transgenic mice: human variable regions, rat constant regions
Mean fluorescence intensity [6]: 212 | Mean fluorescence intensity [7]: 15.6 | Mean fluorescence intensity [8]: 4.2 | Mean fluorescence intensity [9]: 6.6 | Mean fluorescence intensity [10]: 2.9

B6: 18D2H2 fully human TIM-3 antibody (human IgG4, kappa) (antibody, V domains shown)
VH: B5 VH
VL: B5 VL
Inhibition ratio (%) [1]: 1.4% | Inhibition ratio (%) [2]: 56.1% | Inhibition ratio (%) [3]: 3.9% | Inhibition ratio (%) [4]: 64.9% | Inhibition ratio (%) [5]: 62.3%

B8: 7A4F10 fully human TIM-3 antibody (human IgG4, kappa) (antibody, V domains shown)
VH: EVQLLESGGGLVQPGGSLRLSCAASGFTFRTHLISWVRQAPGKGLEWVAAITGSGGSTYYADSVKGRFIISRDNSKNTLFLQMNSLRAEDTAVYYCAKDGGSGSYDDFWGQGTLVTVSS
VL: ETVLTQSPVTLSLSPGERATLSCRASQSVGSYLAWYQQKPGQAPRLLIYDASNRATGIPARFSGSGSGTDFTLTISSLEPEDFAVYYCQQRSNWPPTFGQGTKVEIK
Inhibition ratio (%) [1]: 0.5% | Inhibition ratio (%) [2]: 56.9% | Inhibition ratio (%) [3]: 5.7% | Inhibition ratio (%) [4]: 62.4% | Inhibition ratio (%) [5]: 60.5%

B9: 7A4F10 (TIM-3 antibody purified from hybridoma, chimeric antibody of Example 2) (antibody, V domains shown)
VH: B8 VH
VL: B8 VL
notes: as for B5
Mean fluorescence intensity [6]: 145 | Mean fluorescence intensity [7]: 6.8 | Mean fluorescence intensity [8]: 3.3 | Mean fluorescence intensity [9]: 4.3 | Mean fluorescence intensity [10]: 2.9

Continued, values first:

Inhibition ratio (%) [1]: 1.6% | Inhibition ratio (%) [2]: 52.1% | Inhibition ratio (%) [3]: -4.4% | Inhibition ratio (%) [4]: 59.5% | Inhibition ratio (%) [5]: 57.2%
B1: 215A8F2 fully human TIM-3 antibody (human IgG4, kappa) (antibody, V domains shown)
VH: QVQLQQWGAGLLKPSETLSLTCTVYGGSFSGYYWNWIRQPPGKGLEWLGEINHSGSTNYNPSLKRRVTISVDTSKNQFSLKLSSVTAADTAVYYCARVYYYGPFDFWGQGTLVTVSS
VL: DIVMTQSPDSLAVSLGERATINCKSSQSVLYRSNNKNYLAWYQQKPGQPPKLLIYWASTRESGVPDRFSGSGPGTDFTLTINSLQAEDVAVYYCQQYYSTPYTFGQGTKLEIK

Mean fluorescence intensity [6]: 613 | Mean fluorescence intensity [7]: 55.6 | Mean fluorescence intensity [8]: 8.6 | Mean fluorescence intensity [9]: 18.7 | Mean fluorescence intensity [10]: 3
B2: 215A8F2 (TIM-3 antibody purified from hybridoma, chimeric antibody of Example 2) (antibody, V domains shown)
VH: B1 VH
VL: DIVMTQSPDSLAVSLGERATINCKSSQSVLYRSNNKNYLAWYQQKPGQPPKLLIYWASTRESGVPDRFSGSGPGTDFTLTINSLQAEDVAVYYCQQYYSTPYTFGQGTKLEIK
notes: as for B5

Inhibition ratio (%) [1]: 5.5% | Inhibition ratio (%) [2]: 37.6% | Inhibition ratio (%) [3]: 6.1% | Inhibition ratio (%) [4]: 60.1% | Inhibition ratio (%) [5]: 52.3%
B3: 134H3G6 fully human TIM-3 antibody (human IgG4, kappa) (antibody, V domains shown)
VH: EVQLVESGGGLVQPGGSLRLSCAASGFTFSNSWMTWVRQAPGKGLEWVANIKQAGTEKYYVDSVKGRFTISRDNAKNSLYLQMNSLRAEDTAVYYCNSGSNYFDYWGQGTLVTVSS
VL: B5 VL with T2I, N26R, V29F, D50G, F58I

Mean fluorescence intensity [6]: 485 | Mean fluorescence intensity [7]: 177 | Mean fluorescence intensity [8]: 21.2 | Mean fluorescence intensity [9]: 58.1 | Mean fluorescence intensity [10]: 2.9
B4: 57F4E5 (TIM-3 antibody purified from hybridoma, chimeric antibody of Example 2) (antibody, V domains shown)
VH: EVQLVESGGGLVQPGGSLRLSCAASGFTFSSYWMSWVRQAPGKGLEWVANIKQDGSEKYYVDSVKGRFTISRDSAKNSLYLQMNSLRAEDTAMYFCARDSNFFDYWGQGTLVTVSS
VL: B5 VL with N26S, N28S, Y30S, Q38R, D50F, A51S, F58I
notes: as for B5

Mean fluorescence intensity [6]: 261 | Mean fluorescence intensity [7]: 17.7 | Mean fluorescence intensity [8]: 4.7 | Mean fluorescence intensity [9]: 8.2 | Mean fluorescence intensity [10]: 3
B7: 134H3G6 (TIM-3 antibody purified from hybridoma, chimeric antibody of Example 2) (antibody, V domains shown)
VH: B3 VH
VL: B5 VL with T2I, N26R, V29F, D50G, F58I
notes: as for B5
